Laboratory results from PMC12401731.

Experiments:
[1] = molecular target: HIV-1 RT p66 with TEV-cleavable N-terminal His tag (HTp66) (HIV-1); experiment: mass photometry
[2] = molecular target: HIV-1 RT p66 with TEV-cleavable N-terminal His tag (HTp66) (HIV-1); experiment: cross-linking + other: mass photometry
HTp66 K259A (HIV-1) = experiment: mass photometry

With “HIV-1 RT p66 with TEV-cleavable N-terminal His tag (HTp66) (enzyme)” the percent dimer at 500 nM JLJ648 [1] was 58% and the percent of the population as dimer [2] was 26%.
Substance HTp66 K259A (enzyme) has a percent dimer at 500 nM JLJ648 (HTp66 K259A (HIV-1)) of 52%.
